Among the data in the Immune Epitope Database (IEDB) are IC50 values, retold here.

pIC50: −log10 of the molar value. Some results are limits rather than exact numbers.

By pIC50 is commonly meant the IC50 on a negative log10 scale, so that one unit is a factor of ten.

The target in one experiment is HLA-A*01:01. Put plainly: IEDB peptide-MHC binding, purified MHC/competitive/radioactivity; ≥ and ≤ were set here for values at or beyond the usual limits of such assays. The settings on record: source organism: Triticum aestivum.
A further experiment addresses HLA-B*08:01. The description is as above. The settings on record: source organism: Triticum aestivum.

On to FPQQQRPFI, for which the pIC50 with HLA-A*01:01 was no more than 4.00; with HLA-B*08:01, 6.95.
Take QGMHILLPL: the figures for the pIC50 with HLA-A*01:01 and with HLA-B*08:01 were no more than 4.00 and 7.14, respectively.
Regarding LLSPRGKEL, the pIC50 in the experiment with HLA-A*01:01 was no more than 4.00; with HLA-B*08:01 it was 7.04.
For the sequence LLQQCKPVSL, the results for the pIC50 with HLA-A*01:01 and with HLA-B*08:01 were no more than 4.00 and 7.85, respectively.
On to AMAMKIATA, for which the pIC50 with HLA-A*01:01 is no more than 4.00; in the experiment with HLA-B*08:01, 7.32.
On the same counts, the results for MAMKIATAA are no more than 4.00 and 8.28.
For LQQCKPVSL, in that order: no more than 4.00 and 7.14.
For MKTFLILAL, in that order: no more than 4.00 and 6.65.
For the sequence LAMAMKIATA, the pIC50 in the experiment with HLA-A*01:01 was no more than 4.00; in the experiment with HLA-B*08:01, 6.79.
Turning to CAAIHTIIH, the pIC50 with HLA-A*01:01 is no more than 4.00; in the experiment with HLA-B*08:01, 6.33.
On the same counts, the results for WLQQQLVPQL are no more than 4.00 and 6.54.
Regarding VMRQQCCQQL, the figures for the pIC50 with HLA-A*01:01 and with HLA-B*08:01 were no more than 4.00 and 6.79, respectively.
For MNIASASRL, in that order: no more than 4.00 and 6.43.
Turning to FLLQQCKPV, the pIC50 with HLA-A*01:01 was no more than 4.00; in the experiment with HLA-B*08:01, 8.11.
For LLQQSKPASL, in that order: 4.47 and 7.60.
On the same counts, the results for QLEAIRSLV are 4.77 and 6.45.
For SSQVLQQSTY, in that order: 6.99 and no more than 4.00.
Take VSFQQPQQQY: the negative-log IC50 (pIC50) is 6.44 in the experiment with HLA-A*01:01 and no more than 4.00 with HLA-B*08:01.
On the same counts, the results for LEAIRSLVL are no more than 4.00 and 6.52.
On to LIPCRDVVL, for which the values for the pIC50 with HLA-A*01:01 and in the experiment with HLA-B*08:01 were no more than 4.00 and 6.61, respectively.
